Results: the supplement of paper PMC10567573

B1: PI4K2A (parent)
chain: FVKDPQGRIIAVFKPKNEEPYGHL

Variants of: B1
Assay: protein stability index of a GFP-peptide fusion (GPS, HEK-293T) (PSI 1-6); higher = more stable
Settings: c terminus: a fixed tail appended
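Note: lentivirally expressed fusions sorted by FACS into six bins by GFP to DsRed ratio, PSI derived from sequencing read proportions per bin multiplied by bin number.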

Variant | protein stability index
FVKDPQGRIIAVFKMKNEEPYGHL | 2.1
FVKDPQGRIIAVFKLKNEEPYGHL | 2.26
FVKDPQGRIIAVFKKKNEEPYGHL | 2.45
FVKDPQGRIIAVFKWKNEEPYGHL | 1.08
FVKDPQGRIIAVFKFKNEEPYGHL | 1.77
FVKDPQGRIIAVFKGKNEEPYGHL | 2.5
FVKDPQGRIIAVFKYKNEEPYGHL | 2.4
FVKDPQGRIIAVFKSKNEEPYGHL | 1.96
FVKDPQGRIIHVFKPKNEEPYGHL | 1.41
FVKDPQGRIIFVFKPKNEEPYGHL | 2.49
FVKDPQGRIIWVFKPKNEEPYGHL | 2.88
FVKDPQGRIIEVFKPKNEEPYGHL | 2.07
FVKDPQGRIIQVFKPKNEEPYGHL | 3.56
FVKDPQGRIIKVFKPKNEEPYGHL | 2.58
FVHDPQGRIIAVFKPKNEEPYGHL | 1.68
FVSDPQGRIIAVFKPKNEEPYGHL | 2.67
FVMDPQGRIIAVFKPKNEEPYGHL | 1.47
FVQDPQGRIIAVFKPKNEEPYGHL | 1.32
FVPDPQGRIIAVFKPKNEEPYGHL | 1.91
FVEDPQGRIIAVFKPKNEEPYGHL | 1.42
FVCDPQGRIIAVFKPKNEEPYGHL | 2.7
FVKDKQGRIIAVFKPKNEEPYGHL | 2.07
FVKDWQGRIIAVFKPKNEEPYGHL | 2.7
FVKDYQGRIIAVFKPKNEEPYGHL | 2.28

Variant | protein stability index
FVKDDQGRIIAVFKPKNEEPYGHL | 2.03
FVKDEQGRIIAVFKPKNEEPYGHL | 2.04
FVKDPQGRIIAVAKPKNEEPYGHL | 1.55
FVKDPQGRIIAVLKPKNEEPYGHL | 1.96
FVKDPQGRIIAVYKPKNEEPYGHL | 2.18
FVKDPQGRIIAVPKPKNEEPYGHL | 2.3
FVKDPQGRIIAVIKPKNEEPYGHL | 2.5
FVKDPQGRIIAVMKPKNEEPYGHL | 1.28
FVKDPQGRIIAVFKPKNEEPYGHW | 1.74
FVKDPQGRIIAVFKPKNEEPYGHY | 1.41
FVKDPQGRIIAVFKPKNEEPYGHQ | 2.03
FVKDPQGRIIAVFKPKNEEPYGHM | 1.92
FVKDPQGRIIAVFKPKNEEPYGHG | 1.48
FVKDPQGRISAVFKPKNEEPYGHL | 1.97
FVKDPQGRIGAVFKPKNEEPYGHL | 2.09
FVKDPQGRIPAVFKPKNEEPYGHL | 2.56
FVKDPQGRIQAVFKPKNEEPYGHL | 1.74
FVKDPQGRIYAVFKPKNEEPYGHL | 2.28
FVKDPQGRIWAVFKPKNEEPYGHL | 2.88
FVKDPQGRIIAQFKPKNEEPYGHL | 2.5
FVKDPQGRIIAPFKPKNEEPYGHL | 2.46
FVKDPQGRIIACFKPKNEEPYGHL | 2.04
FVKDPQGRIIAYFKPKNEEPYGHL | 1.93
FVKDPQGRIIAHFKPKNEEPYGHL | 2.9

Variant | protein stability index
FVKDPQGRIIAWFKPKNEEPYGHL | 1.45
FVKDPQGRIIATFKPKNEEPYGHL | 2.54
FVKDPQGRIIAKFKPKNEEPYGHL | 1.38
FVKDPFGRIIAVFKPKNEEPYGHL | 1.62
FVKDPYGRIIAVFKPKNEEPYGHL | 1.6
FVKDPIGRIIAVFKPKNEEPYGHL | 1.45
FVKDPCGRIIAVFKPKNEEPYGHL | 1.54
FVKDPMGRIIAVFKPKNEEPYGHL | 1.57
FVKDPLGRIIAVFKPKNEEPYGHL | 2.22
FVKDPGGRIIAVFKPKNEEPYGHL | 1.92
FVKDPHGRIIAVFKPKNEEPYGHL | 1.1
FVKDPQRRIIAVFKPKNEEPYGHL | 2.08
FVKDPQMRIIAVFKPKNEEPYGHL | 3.42
FVKDPQERIIAVFKPKNEEPYGHL | 2.98
FVKDPQDRIIAVFKPKNEEPYGHL | 1.69
FVKDPQHRIIAVFKPKNEEPYGHL | 2.79
FVKDPQTRIIAVFKPKNEEPYGHL | 1.45
FVKDPQWRIIAVFKPKNEEPYGHL | 3.45
FVKDPQGRIIAVFSPKNEEPYGHL | 3.13
FVKDPQGRIIAVFQPKNEEPYGHL | 2.2
FVKDPQGRIIAVFDPKNEEPYGHL | 2.49
FVKDPQGRIIAVFYPKNEEPYGHL | 2.23
FVKDPQGRIIAVFPPKNEEPYGHL | 2.07
FVKDPQGRIIAVFFPKNEEPYGHL | 2.67

Variant | protein stability index
FVKDPQGRIIAVFLPKNEEPYGHL | 2.08
FVKDPQGRIIAVFCPKNEEPYGHL | 2.56
FQKDPQGRIIAVFKPKNEEPYGHL | 1.99
FYKDPQGRIIAVFKPKNEEPYGHL | 1.95
FAKDPQGRIIAVFKPKNEEPYGHL | 2.07
FDKDPQGRIIAVFKPKNEEPYGHL | 3.36
FRKDPQGRIIAVFKPKNEEPYGHL | 2.88
FSKDPQGRIIAVFKPKNEEPYGHL | 2.44
FGKDPQGRIIAVFKPKNEEPYGHL | 2.09
FMKDPQGRIIAVFKPKNEEPYGHL | 2.42
FNKDPQGRIIAVFKPKNEEPYGHL | 3.04
TVKDPQGRIIAVFKPKNEEPYGHL | 3.36
QVKDPQGRIIAVFKPKNEEPYGHL | 3.69
MVKDPQGRIIAVFKPKNEEPYGHL | 2.76
IVKDPQGRIIAVFKPKNEEPYGHL | 2.18
DVKDPQGRIIAVFKPKNEEPYGHL | 3.69
SVKDPQGRIIAVFKPKNEEPYGHL | 2.76
WVKDPQGRIIAVFKPKNEEPYGHL | 1.89
LVKDPQGRIIAVFKPKNEEPYGHL | 2.25
FVKDPQGRIIAVFKPMNEEPYGHL | 1.98
FVKDPQGRIIAVFKPINEEPYGHL | 2.31
FVKDPQGRIIAVFKPSNEEPYGHL | 1.48
